Assay [1] addresses human Fms-like tyrosine kinase 3 receptor (Flt-3R), GFP-tagged, on stable HEK-293 cells (HEK-293-hFlt-3R) (human) (UniProt P36888).
Assay [2] shares this target. The assay is described as follows: ELISA; competition on cells: HEK-293-hFlt-3R cells preincubated 1 h with 100-fold excess of nonbiotinylated pUL7 (5 ug/ml), Flt-3L (5 ug/ml), anti-Flt-3R antibody (1:100) or control antibody, washed with MEM, then incubated with 50 ng/ml biotinylated pUL7; HRP-streptavidin, absorbance at 450 nm. In general terms: In an ELISA, binding on a coated surface is turned into a signal by an enzyme label.

Assay [3] concerns the target T1, human Fms-like tyrosine kinase 3 receptor (Flt-3R), GFP-tagged, on stable HEK-293 cells (HEK-293-hFlt-3R) (human, UniProt P36888 27-993).
T1 construct: human fms-tyrosine kinase 3 (FLT3), GFP-tagged, from plasmid OriGene RG211459, expressed on HEK-293 cells; In the functional rows from RS4;11 cells the receptor was the endogenous human Flt-3R of those cells, not this construct; also called human Flt-3 receptor; source: HEK-293, stably transfected (OriGene plasmid RG211459, G418 selection), on cells
T1 sequence (looked up): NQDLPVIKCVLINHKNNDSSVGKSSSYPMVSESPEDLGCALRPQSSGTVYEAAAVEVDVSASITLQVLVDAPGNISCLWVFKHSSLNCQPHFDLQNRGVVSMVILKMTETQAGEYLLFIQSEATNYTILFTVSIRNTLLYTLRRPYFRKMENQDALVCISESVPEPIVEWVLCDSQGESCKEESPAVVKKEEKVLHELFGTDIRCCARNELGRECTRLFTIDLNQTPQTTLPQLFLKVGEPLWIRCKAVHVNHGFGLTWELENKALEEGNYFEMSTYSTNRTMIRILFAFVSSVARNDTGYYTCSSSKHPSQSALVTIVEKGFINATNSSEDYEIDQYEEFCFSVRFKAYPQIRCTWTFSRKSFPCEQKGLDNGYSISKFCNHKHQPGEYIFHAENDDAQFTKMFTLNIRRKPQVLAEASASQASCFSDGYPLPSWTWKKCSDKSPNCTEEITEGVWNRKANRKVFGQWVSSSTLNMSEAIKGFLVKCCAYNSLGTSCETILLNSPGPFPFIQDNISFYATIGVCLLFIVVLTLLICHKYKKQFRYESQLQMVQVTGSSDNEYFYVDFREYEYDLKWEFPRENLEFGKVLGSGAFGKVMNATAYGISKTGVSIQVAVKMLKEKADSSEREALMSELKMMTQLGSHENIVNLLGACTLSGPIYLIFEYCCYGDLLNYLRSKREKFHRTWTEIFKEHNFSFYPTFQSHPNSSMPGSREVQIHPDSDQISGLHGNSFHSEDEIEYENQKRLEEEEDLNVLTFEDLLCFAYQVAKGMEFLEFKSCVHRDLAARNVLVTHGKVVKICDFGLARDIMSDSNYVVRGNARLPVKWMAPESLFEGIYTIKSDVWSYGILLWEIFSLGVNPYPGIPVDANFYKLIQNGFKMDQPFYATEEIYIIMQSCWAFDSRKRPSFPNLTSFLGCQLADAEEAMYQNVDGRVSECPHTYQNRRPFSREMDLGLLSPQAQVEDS
The description is as above. As to conditions: one partner purified.

In assay [1], “purified UL7 (pUL7), recombinant UL7 protein from HCMV TB40E, nonbiotinylated (Fc fusion)” yielded a phosphorylation of Akt (immunoblot) in serum-starved RS4;11 cells stimulated with 50 ng/ml pUL7, within 10 min, fold compared to the Fc control of 8 fold; a phosphorylation of ERK1/2 (immunoblot) in serum-starved RS4;11 cells stimulated with 50 ng/ml pUL7, within 10 min, fold compared to the Fc control of 9 fold; a phosphorylation of Flt-3R (immunoblot) in serum-starved RS4;11 cells stimulated with 50 ng/ml pUL7, within 10 min, fold compared to the Fc control of 14 fold. The percent reduction in binding of biotinylated pUL7 (100-fold excess of competitor) in assay [2] came to 62%.

B1: recombinant human Flt-3 ligand (Flt-3L) (ligand, UniProt P49771 27-184, looked up)
chain: TQDCSFQHSPISSDFAVKIRELSDYLLQDYPVTVASNLQDEELCGGLWRLVLAQRWMERLKTVAGSKMQGLLERVNTEIHFVTKCAFQPPPSCLRFVQTNISRLLQETSEQLVALKPWITRQNFSRCLELQCQPDSSTLPPPWSPRPLEATAPTAPQP
notes: recombinant human Flt-3 ligand, soluble; No catalogue number is printed; also called soluble Flt-3 ligand; 100XFlt-3L; source: bought: R&S Systems (so in the source)
Take B1: in assay [3], the “percent reduction in binding of biotinylated pUL7 (100-fold excess of competitor)” value stood at 63%.

The record behind these values is publication PMC5915732, “Human Cytomegalovirus Encodes a Novel FLT3 Receptor Ligand Necessary for Hematopoietic Cell Differentiation and Viral Reactivation” (mBio, 2018).
